{"source": "patent US20210261643A1", "about": "“INHIBITORS OF P-TEFB MEDIATED TRANSCRIPTION” (The Regents of the University of California, priority 2018, published 2021)", "molecules": {"B1": {"name": "Myc-epitope tagged HEXIM1-Tat chimera HT1 (designed binder)", "chain": "KKKHRRRPSKKKRHWKPYYKLTWEEKKKFDEKQSLRASRIRAEMFAKGQPVAPYNTTQFLMDDHDQEEPDLVDMEPVDPYLEPWKHPGSQPRTACNNCYCKKCCFHCYACFTRKGLGISYG"}, "B2": {"name": "HT2 (protein)", "chain": "KKKHRRRPSKKKRHWKPYYKLTWEEKKKVDMEPVDPYLEPWKHPGSQPRTACNNCYCKKCCFHCYACFTRKGLGISYG"}, "B3": {"name": "HT3 (protein)", "chain": "FDEKQSLRASRIRAEMFAKGQPVAPYNTTQFLMDDHDQEEPDLVDMEPVDPYLEPWKHPGSQPRTACNNCYCKKCCFHCYACFTRKGLGISYG"}, "B4": {"name": "THT: fusion protein of TAT ARM, HEXIM CDK9 inhibitory domain and TAT P-TEFb-binding domain (protein)", "chain": "MEQKLISEEDLRKKRRQRRRAPPGGGGSRIRAEMFAKGQPVAPYNTTQFLMDDHDQEEPDLVDMEPVDPYLEPWKHPGSQPRTACNNCYCKKCCFHCYACFTRKGLGISYG"}}, "key": {"[1]": {"test_system": "HIV reactivation in J-Lat 9.2 cells", "assay": "HIV reactivation in J-Lat 9.2 latent infection model, FACS of GFP positive cells", "type": "cell-based", "details": "J-Lat 9.2 cells, PMA 100 nM", "source_text": "FIGS. 4A and 4B. Stable expression of HT1 inhibits HIV reactivation. FIG. 4A: Stable expression of HT1 inhibits HIV reactivation from 2D10 cells. 3f:HT1 was stably expressed in 2D10 cells (D-HT cells). […] Error bars represent standard deviation from triplicate FACS analysis. FIG. 4B: Stable expression of HT1 inhibits HIV reactivation from J-Lat 9.2 cells. 3f:HT1 was stably expressed in J-Lat 9.2 cells (L-HT cells). […] Error bars represent standard deviation from triplicate FACS analysis.\nTo test the effect of HT1 on HIV-1 in T-lymphocyte derived cells, 3f:HT1 was stably expressed in HIV latent infection models 2D10 and J-Lat 9.2 cells (D-HT and L-HT cells respectively), which carry replication-defective, GFP-flagged HIV proviruses. In both 2D10 and J-Lat 9.2, the basal HIV transcription level is undetectable, as measured through GFP expression. Compounds such as the PKC agonist PMA, the histone deacetylase inhibitor SAHA or the BET bromodomain inhibitor JQ1 reactivate HIV transcription and increase GFP-positive cells detected by FACS analysis. 2D10 cells are more sensitive to HIV reactivation than J-Lat 9.2 cells, though they harbor a mutation in the N-terminal sequence of Tat (H13L). 2D10 and D-HT cells were incubated for 24 hrs with PMA (10 nM), SAHA (5 μM) or JQ1 (1 μM) and GFP positive cells were detected by FACS analysis. […]"}, "[2]": {"molecular_target": "positive transcription elongation factor B (UniProt O60563 1-726; P50750 1-372)", "sequence (O60563 whole entry, chain 1 of 2)": "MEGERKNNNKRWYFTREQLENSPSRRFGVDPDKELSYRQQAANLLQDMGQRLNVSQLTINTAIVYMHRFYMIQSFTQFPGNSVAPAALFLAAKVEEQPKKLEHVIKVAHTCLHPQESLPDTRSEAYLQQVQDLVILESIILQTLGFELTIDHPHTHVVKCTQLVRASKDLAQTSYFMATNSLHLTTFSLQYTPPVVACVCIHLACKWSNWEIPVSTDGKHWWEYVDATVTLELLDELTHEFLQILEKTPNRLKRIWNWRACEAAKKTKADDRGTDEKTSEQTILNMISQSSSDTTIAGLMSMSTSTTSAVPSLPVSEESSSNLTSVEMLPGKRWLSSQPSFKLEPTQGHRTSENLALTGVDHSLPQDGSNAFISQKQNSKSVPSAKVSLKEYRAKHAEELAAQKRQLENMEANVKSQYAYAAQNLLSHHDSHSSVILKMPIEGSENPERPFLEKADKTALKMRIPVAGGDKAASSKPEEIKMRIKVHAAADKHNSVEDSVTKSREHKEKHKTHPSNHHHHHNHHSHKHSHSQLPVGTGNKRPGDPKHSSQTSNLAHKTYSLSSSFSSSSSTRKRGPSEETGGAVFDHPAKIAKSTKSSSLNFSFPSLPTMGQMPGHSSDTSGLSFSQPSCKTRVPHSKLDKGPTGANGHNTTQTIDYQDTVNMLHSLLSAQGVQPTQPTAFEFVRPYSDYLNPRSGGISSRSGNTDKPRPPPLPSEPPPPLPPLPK", "sequence (P50750 whole entry, chain 2 of 2)": "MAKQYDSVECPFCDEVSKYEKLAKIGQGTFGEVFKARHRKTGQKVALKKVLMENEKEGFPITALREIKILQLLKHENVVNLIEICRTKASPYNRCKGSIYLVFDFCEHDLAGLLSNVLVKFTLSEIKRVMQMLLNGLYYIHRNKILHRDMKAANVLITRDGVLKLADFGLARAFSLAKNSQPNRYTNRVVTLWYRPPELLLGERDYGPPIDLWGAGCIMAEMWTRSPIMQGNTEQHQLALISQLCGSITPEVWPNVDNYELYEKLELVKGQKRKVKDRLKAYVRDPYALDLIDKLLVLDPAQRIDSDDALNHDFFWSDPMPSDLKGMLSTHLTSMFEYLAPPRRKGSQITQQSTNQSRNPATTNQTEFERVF", "assay": "cell-based or functional assay"}, "[3]": {"test_system": "Tat-dependent gene expression from the HIV promoter", "assay": "Luciferase reporter assay, pLTR-Luc co-transfected with pTat and pHT in 293T cells", "type": "cell-based", "source_text": "FIGS. 2A, 2B, and 2C. A HEXIM1-Tat fusion peptide inhibits gene expression from the HIV promoter. FIG. 2A. Structure of the HEXIM1-Tat fusion peptides used in the study. The functional domains used from HEXIM1 and Tat include a HEXIM1 Arginine Rich Motif (ARM, black box, residues 150-162) that binds RNA, a HEXIM1 inhibitory domain (ID, light grey box, residues 200-211) that inhibits CDK9 through a PYNT motif, and Tat transactivation domain (AD, dark grey box, residues 1-48) that binds to P-TEFb. The conceptual schemes are not drawn to scale. FIG. 2B. Transient expression of HT1 inhibits Tat-induced LTR-driven Luc expression. Upper panel: a schema depicts the reporter assay. A luciferase reporter gene (Luc) is under the control of the HIV promoter (P-HIV) and can be activated by ectopically expressed Tat. The Luc assay was used to titrate the inhibitory effect of HT1-3 on P-HIV transactivation by Tat. Middle panel: increasing amounts of m:HT1, m:HT2 or m:HT3 expressing plasmid (pHT) were co-transfected in 293T cells with a plasmid (pTat) expressing f:Tat and another (pLTR-Luc) expressing Luc under the control of the HIV promoter. Luc activity was plotted as % activity relative to control (empty vector used instead of pHT), depending on the transfected pHT:pTat ratio. Error bars in the graph represent standard deviation from triplicate experiments. FIG. 2C. Transient expression of HT1 inhibits Luc expression from HIV-1 NL43ΔenvLuc. Top schema depicts the reporter assay. A luciferase reporter gene (Luc) is inserted in a replication-defective HIV-1 molecular clone (pNL43ΔenvLuc) in which Luc and Tat are under the control of the HIV promoter (P-HIV). A Luc assay was used to titrate the inhibitory effect of HT1-3 on P-HIV transactivation by Tat. Bottom: increasing amounts of pHT1 were co-transfected in 293T cells with pNL43ΔenvLuc. Luc activity was plotted as % activity relative to control (empty vector used instead of pHT), depending on the transfected amounts of pHT1. Error bars in the graph represent standard deviation from triplicate experiments.\nLuciferase (Luc) reporter assays were performed to titrate the potency of each chimera to inhibit Tat-dependent gene expression from the HIV promoter. Effector plasmids included pHT1-3 and pTat, which respectively expressed a Myc-epitope tag chimera (m:HT1-3) and a Flag-epitope tagged Tat (f:Tat). pHT1, pHT2 or pHT3 was transiently co-transfected in 293T cells with pTat and a Luc reporter gene under the control of the HIV promoter (P-HIV, expressed from the plasmid pLTR-Luc). […] Finally, HT1 lead to a 4-fold decrease in Luc expression at a 2:1 ratio. […] Similar results were obtained when co-transfecting pHT1-3 and pTat in NIH1 cells, which stably carry an LTR-Luc reporter gene. Thus, we selected HT1 for further investigation."}, "[4]": {"test_system": "HIV TAR RNA", "assay": "RNA immunoprecipitation and RT-qPCR with TAR-specific primers in 293T cells", "type": "binding", "details": "293T cells, anti-Myc Ab, RT-qPCR", "description": "FIGS. 3A, 3B, 3C and 3D. HT1 prevents Tat from bringing active P-TEFb to TAR. FIG. 3A: HT1 inhibits the kinase activity of P-TEFb subunit CDK9. m:HT1 and/or f:Tat were transiently expressed in 293T cells. Cell lysates were used for IP using anti-Myc Ab (lanes 2-4), or control IgG (lane 1). Immunoprecipitates were incubated with ATP and recombinant GST-CTD proteins for in vitro kinase assay. Six replicate experiments were performed, and mean relative kinase activities are shown in the bar graph to the right. FIG. 3B: HT1 binds to TAR. m:HT1 or m:Tat (or empty vector, EV, as a control) was transiently co-expressed with TAR RNA-expressing pU16TAR in 293T cells. Cell lysates were used for IP using anti-Myc Ab or control IgG. RNA was purified from the immunoprecipitates and submitted to RT-qPCR using TAR-specific primers. Relative TAR enrichment was calculated as qPCR count using anti-Myc Ab minus using IgG, and normalized to EV. Error bars represent standard deviation from triplicate qPCR assays. […] Error bars represent standard deviation from triplicate qPCR assays. FIG. 3D: HT1 competes with Tat for TAR binding. m:HT1 and/or f:Tat were transiently co-expressed with TAR RNA-expressing pU16TAR in 293T cells. Cell lysates were used for IP using anti-Myc Ab or control IgG. RNA was purified from the immunoprecipitates and submitted to RT-qPCR using TAR-specific primers (upper panel). Relative TAR enrichment was calculated as qPCR count using anti-Myc Ab minus using IgG, and normalized to EV. Error bars represent standard deviation from triplicate qPCR assays.\nFinally, since HEXIM1 ARM resembles the TAR-binding domain from Tat, we investigated whether HT1 could bind to HIV TAR. m:HT1 or m:Tat was co-expressed in 293T cells with TAR RNA, expressed under RNA Polymerase III dependent H1 promoter, and immunoprecipitated using anti-Myc Ab or IgG as a control. TAR RNAs co-immunoprecipitated with HT1 or Tat were quantified by RT-qPCR analysis. […] To test whether HT1 affects Tat-TAR interactions, increasing amounts of m:HT1 were also co-expressed with a fixed amount of f:Tat and TAR. […] As expected, HT1 also bound to endogenous 7SK snRNA."}}}
{"molecule": "CCCCCCCCCCCCCC(=O)O[C@@H]1[C@@H](C)[C@@]2(O)[C@@H](C=C(CO)C[C@]3(O)C(=O)C(C)=C[C@@H]23)[C@@H]2C(C)(C)[C@]12OC(C)=O", "note": "[PMA, reference compound]", "values": [{"measurement": "increase in GFP expression", "setting": "[1]", "result": 12, "unit": "%"}]}
{"molecule": "B1", "values": [{"measurement": "fold decrease in relative kinase activity (CTD-P band intensity normalized with CDK9), in vitro kinase assay on immunoprecipitates with ATP and GST-CTD", "setting": "[2]", "result": 3.1, "unit": "fold"}]}
{"molecule": "B2", "values": [{"measurement": "inhibition of Luc expression from the HIV promoter (in words)", "setting": "[3]; 293T cells, ratio of pHT2 to pTat 2:1", "result": "failed to inhibit"}]}
{"molecule": "B3", "values": [{"measurement": "decrease in Luc expression from the HIV promoter", "setting": "[3]; 293T cells, pHT:pTat ratio 2:1", "result": "≤ 2", "unit": "fold"}, {"measurement": "immunoprecipitation of TAR RNA (in words)", "setting": "[4]", "result": "failed to bind TAR"}]}
{"molecule": "B4", "values": [{"measurement": "inhibition of HIV transcription in luciferase assays (in words)", "setting": "[3]; luciferase assays performed as in Example 1", "result": "potently inhibited"}]}
